In PMC3293901, “Identification, Purification and Characterization of Laterosporulin, a Novel Bacteriocin Produced by Brevibacillus sp. Strain GI-9” (PLoS ONE, 2012):

What was measured:
B. subtilis = assay: Growth inhibition assay of the synthetic partial peptide; assay type: cell-based; conditions: custom synthesized 19-mer, indicator strain B. subtilis
Description: (§1) The molecular mass observed for laterosporulin by MALDI-TOF was 5605.8 Da ( Fig. 3 ), which is in good agreement with mass obtained by gel filtration chromatography ( Fig. 2A ). The N-terminal sequence of laterosporulin yielded partial sequence of ^1A(M)Q(C)QG(C/Q)PDAISGWTHTDYQCH^19 for two independently processed samples. The uncertainties at the 1st, 2nd and 4th positions obtained in N-terminal sequences were considered to predict the antibacterial activity of each possible peptide sequence using a database of peptides with known antimicrobial potency. […] To confirm the antimicrobial activity of this partial peptide, it was custom synthesized, mass was confirmed by MALDI-TOF and the synthetic peptide was examined in growth inhibition assays using indicator strains B. subtilis and E. coli.
(§2) To evaluate antibacterial function of the N-terminal peptide, a 19-mer peptide representing the N-terminal sequence of the bioactive protein was synthesized using standard Fmoc-chemistry on 2-chlorotrityl resin (0.2 mmol/g). Synthesis was carried out on a semi-automated synthesizer (PS-II) (Protein Technologies Inc., AZ USA). It was cleaved with TFA and purified by RP-HPLC system (Dionex, Ultimate-3000) using C-18 analytical column. The purified peptide was subjected to MALDI-TOF analysis for confirmation of molecular mass.

E. coli [1] = assay: as above; assay type: cell-based; conditions: custom synthesized 19-mer, indicator strain E. coli
Description: as §1, §2

B.subtilis = assay: MIC, microtiter plate dilution assay; assay type: cell-based; conditions: purified laterosporulin, micro-titer plates, triplicates, 30°C, OD 600 nm, 48 h
Protocol: (§3) The MIC of bacteriocin for different strains was evaluated by using a microtiter plate dilution assay. Test strains were grown to logarithmic phase under optimal conditions (up to 0.3 OD) and the test was performed in triplicates. Each well of the microtiter plate was added with 200 µl of fresh nutrient medium and 50 µl of test strains in different rows. Subsequently, different dilutions (50 µl) of freshly prepared bacteriocin were added to each well. The first column of the microtiter plate was left as a blank while reading through an ELISA plate reader (Thermo Scientific). The microtiter plates were incubated at 30°C incubator and OD was measured at 600 nm at different time intervals.

S. aureus = assay: MIC, microtiter plate dilution assay; assay type: cell-based; conditions: purified laterosporulin, micro-titer plates, triplicates, 30°C, OD 600 nm, 48 h
Protocol: as §3

E. coli [2] = assay: Bactericidal effect by scanning electron microscopy; assay type: cell-based; conditions: 500 µg/ml purified peptide, 4 hours, 37°C, about 2×10^7 cells/ml; compared to untreated bacteria
Protocol: To examine the bactericidal activity, E.coli cells were grown in NB to an exponential phase, harvested by centrifugation. The pellet obtained was resuspended in fresh NB and aliquots of 5 ml containing about 2×10^7 cells/ml were incubated at 37°C for 4 hours with 500 µg/ml laterosporulin. Samples at 0, 2 and 4 hours interval were centrifuged and pellets were resuspended in 500 µl of phosphate buffer. Each sample was spread on a poly (L-lysine)-coated glass slides (18×18 mm) to immobilize bacterial cells and incubated at 30°C for 90 min. They were fixed with modified Karnovsky's fixative and dehydrated with a graded ethanol series.

[3] = Heat stability, residual antimicrobial activity; assay type: physicochemical; conditions: 120°C for 15 min
Protocol: (§4) The sensitivity of the purified bacteriocin towards different pH, temperature and proteases was evaluated. To determine pH and temperature resistance, the purified peptide was incubated at different pH values between 2.0–12.0 and temperatures 80, 100°C for 30 min and 120°C for 15 min. Different hydrolytic enzymes including pepsin, trypsin, chymotrypsin, proteinase K, pronase E and amylase were incubated with bacteriocin for 6 hours at 37°C to ensure their effect. The enzyme activity was terminated by heating at 80°C before the bacteriocin activity was confirmed.

[4] = pH stability, residual antimicrobial activity; assay type: physicochemical
Protocol: as §4

chymotrypsin = assay: Resistance to proteolytic enzyme, residual antimicrobial activity; assay type: in vitro ADME; conditions: 6 hours at 37°C, enzyme terminated by heating at 80°C
Protocol: as §4

pepsin = assay: as above; assay type: in vitro ADME; conditions: 6 hours at 37°C, enzyme terminated by heating at 80°C
Protocol: as §4

pronase E = assay: as above; assay type: in vitro ADME; conditions: 6 hours at 37°C, enzyme terminated by heating at 80°C
Protocol: as §4

proteinase K = proteinase K (Parengyodontium album, UniProt P06873); assay: as above; assay type: in vitro ADME; conditions: 6 hours at 37°C, enzyme terminated by heating at 80°C
Sequence of proteinase K (P06873 106-384): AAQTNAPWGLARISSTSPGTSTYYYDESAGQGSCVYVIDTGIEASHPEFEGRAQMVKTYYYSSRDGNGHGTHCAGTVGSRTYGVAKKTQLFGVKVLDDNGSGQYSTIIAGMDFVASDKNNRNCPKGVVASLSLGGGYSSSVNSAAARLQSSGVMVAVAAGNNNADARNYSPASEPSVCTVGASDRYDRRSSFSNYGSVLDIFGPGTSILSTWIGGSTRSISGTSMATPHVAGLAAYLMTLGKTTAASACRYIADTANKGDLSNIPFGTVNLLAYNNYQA
Protocol: as §4

trypsin = assay: as above; assay type: in vitro ADME; conditions: 6 hours at 37°C, enzyme terminated by heating at 80°C
Protocol: as §4

[5] = Treatment with dithiothreitol, residual antimicrobial activity; assay type: physicochemical; conditions: DTT used to disrupt disulfide bonds; data not shown
L. monocytogenes = assay: Growth inhibition of test strain; assay type: cell-based; conditions: test strain L. monocytogenes (MTCC 839)
Protocol: (§5) The CFB of strain GI-9 was used to determine the antimicrobial activity. Culture was grown for 48 hours in nutrient broth (NB, Himedia) and subsequently cells were removed by centrifugation (10,000 rpm for 10 min, 4°C). The supernatant obtained was filtered by using 0.22 µm filter (Millipore). The filtrate was diluted by two fold dilution and amounts of 100 µl of different dilutions were used to test the activity. These dilutions were added to the wells that are prepared in plates containing nutrient agar medium seeded with test organism. Above test was also performed using minimal medium to check influence of the medium components on antimicrobial activity. A growth curve up to 24 hours was prepared for strain GI-9 to examine the bacteriocin production at different stages. One unit of bacteriocin was defined as the […] dilution that was given an inhibition zone around the well and reciprocal of this dilution is defined as the unit of antimicrobial activity per ml.

[6] = system: Gram-positive and Gram-negative bacteria; assay: Antibacterial spectrum; assay type: cell-based; conditions: wide range of Gram-positive and Gram-negative bacteria
Protocol: as §5
The MIC of bacteriocin for different strains was evaluated by using a microtiter plate dilution assay. […] The first column of the microtiter plate was left as a blank while reading through an ELISA plate reader (Thermo Scientific). The microtiter plates were incubated at 30°C incubator and OD was measured at 600 nm at different time intervals.

Substance	antimicrobial activity (B. subtilis)	antimicrobial activity (E. coli [1])	MIC (sensitivity in words, values only in Fig. 4) (B.subtilis)	MIC (sensitivity in words, values only in Fig. 4) (S. aureus)	bactericidal effect, cell morphology by SEM (E. coli [2])	heat stability (antimicrobial activity after exposure) [3]	pH stability (antimicrobial activity after incubation) ([4]; above pH 10 (tested up to 12.0))	pH stability (antimicrobial activity after incubation) ([4]; pH between 2.0 to 10.0)	antimicrobial activity after incubation with chymotrypsin (chymotrypsin)	antimicrobial activity after incubation with pepsin (pepsin)	antimicrobial activity after incubation with pronase E (pronase E)	antimicrobial activity after incubation with proteinase K (proteinase K)	antimicrobial activity after incubation with trypsin (trypsin)	antimicrobial activity after treatment with dithiothreitol (DTT) [5]	growth inhibition (L. monocytogenes)	antibacterial activity [6]
ACQCPDAISGWTHTDYQCH	weak antimicrobial activity at significantly higher concentration	weak antimicrobial activity at significantly higher concentration														
^1A(M)Q(C)QG(C/Q)PDAISGWTHTDYQCH^19 [laterosporulin, 5.6 kDa bacteriocin purified from culture supernatant of Brevibacillus sp. strain GI-9]			highly sensitive	highly sensitive	significant modifications in cell shape and morphology	no reduction in antimicrobial activity	reduced significantly	no reduction in antimicrobial activity	did not show any reduction	did not show any reduction	did not show any reduction	did not show any reduction	did not show any reduction	did not affect	could inhibit the growth	active
